Reference: paper PMC3734285, “Expression and Function of the Lipocalin-2 (24p3/NGAL) Receptor in Rodent and Human Intestinal Epithelia” (PLoS ONE, 2013)
pEC50, pKd: −log10 of the molar value. Each block holds one substance with its values, some of them ahead of it.

Tests used:
[1] = target: hNGAL-R (Homo sapiens) (UniProt Q8WUG5); conditions: cited from earlier work
[2] = target: human lipocalin-2/NGAL receptor (hNGAL-R) (human (endogenous in Caco-2 BBE)) (UniProt Q8WUG5); experiment: MST; as a1 but co-incubated with 500 pM hNGAL as a binding competitor to A488-PC3
human lipocalin-2/NGAL receptor (hNGAL-R) (human (endogenous in Caco-2 BBE)), sequence (Q8WUG5 112-649): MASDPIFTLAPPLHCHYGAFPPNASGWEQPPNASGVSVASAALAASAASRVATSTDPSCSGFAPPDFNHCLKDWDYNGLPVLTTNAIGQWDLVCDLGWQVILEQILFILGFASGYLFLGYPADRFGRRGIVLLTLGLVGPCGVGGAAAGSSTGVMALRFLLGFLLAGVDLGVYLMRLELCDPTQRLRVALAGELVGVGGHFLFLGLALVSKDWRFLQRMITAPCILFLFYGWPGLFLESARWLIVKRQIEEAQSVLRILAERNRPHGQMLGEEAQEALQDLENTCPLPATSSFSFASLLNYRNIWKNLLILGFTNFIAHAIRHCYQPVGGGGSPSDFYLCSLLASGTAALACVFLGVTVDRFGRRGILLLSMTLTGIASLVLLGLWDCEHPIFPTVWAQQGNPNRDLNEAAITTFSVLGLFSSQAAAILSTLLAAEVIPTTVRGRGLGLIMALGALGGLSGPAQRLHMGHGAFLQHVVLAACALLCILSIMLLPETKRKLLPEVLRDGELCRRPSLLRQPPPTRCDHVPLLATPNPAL

[3] = target: human lipocalin-2/NGAL receptor (hNGAL-R) (human (endogenous in Caco-2 BBE)) (UniProt Q8WUG5)
[4] = target: human lipocalin-2/NGAL receptor (hNGAL-R) (human (endogenous in Caco-2 BBE)) (UniProt Q8WUG5); remark: listed apart in the source
[5] = target: human lipocalin-2/NGAL receptor (hNGAL-R) (human (endogenous in Caco-2 BBE)) (UniProt Q8WUG5); experiment: MST; fixed amounts of colon-like Caco-2 BBE plasma membrane vesicles pre-incubated 5 min at room temperature with varying A488-PC3 (10-1000 nM); 50 mM Tris pH 7.4, 150 mM NaCl, 10 mM MgCl2, 0.05% Tween-20; Hill fit with coefficient 1.0

hNGAL-R (Homo sapiens), sequence (Q8WUG5 whole entry): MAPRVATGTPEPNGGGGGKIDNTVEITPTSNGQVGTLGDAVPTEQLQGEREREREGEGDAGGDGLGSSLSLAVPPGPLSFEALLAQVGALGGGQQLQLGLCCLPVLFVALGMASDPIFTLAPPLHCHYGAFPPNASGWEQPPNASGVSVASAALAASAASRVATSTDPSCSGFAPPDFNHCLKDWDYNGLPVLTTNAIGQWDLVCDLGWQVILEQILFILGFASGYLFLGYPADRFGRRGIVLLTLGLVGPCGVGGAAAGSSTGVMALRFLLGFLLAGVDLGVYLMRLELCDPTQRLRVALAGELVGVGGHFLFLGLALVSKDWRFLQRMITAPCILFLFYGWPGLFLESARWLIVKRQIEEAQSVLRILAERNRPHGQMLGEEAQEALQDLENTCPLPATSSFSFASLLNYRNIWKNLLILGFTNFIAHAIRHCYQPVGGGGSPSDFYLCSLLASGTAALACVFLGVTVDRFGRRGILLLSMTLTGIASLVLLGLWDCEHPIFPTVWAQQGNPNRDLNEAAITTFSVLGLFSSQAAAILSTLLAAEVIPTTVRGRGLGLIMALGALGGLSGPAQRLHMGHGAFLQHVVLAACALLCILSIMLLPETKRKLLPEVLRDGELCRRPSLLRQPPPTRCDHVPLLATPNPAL
hNGAL (lipocalin-2), sequence (P80188 21-198): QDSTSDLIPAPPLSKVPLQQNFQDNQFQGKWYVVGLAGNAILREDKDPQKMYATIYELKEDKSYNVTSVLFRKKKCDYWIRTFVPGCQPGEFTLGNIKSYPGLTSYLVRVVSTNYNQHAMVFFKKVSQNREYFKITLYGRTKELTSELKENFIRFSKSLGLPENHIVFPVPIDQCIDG
Alexa Fluor 546-labelled metallothionein (rabbit apo-MT-2), sequence (P18055 whole entry): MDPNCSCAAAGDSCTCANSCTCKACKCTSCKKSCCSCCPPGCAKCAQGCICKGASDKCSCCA
Alexa Fluor 546-transferrin from human serum, sequence (P02787 20-698): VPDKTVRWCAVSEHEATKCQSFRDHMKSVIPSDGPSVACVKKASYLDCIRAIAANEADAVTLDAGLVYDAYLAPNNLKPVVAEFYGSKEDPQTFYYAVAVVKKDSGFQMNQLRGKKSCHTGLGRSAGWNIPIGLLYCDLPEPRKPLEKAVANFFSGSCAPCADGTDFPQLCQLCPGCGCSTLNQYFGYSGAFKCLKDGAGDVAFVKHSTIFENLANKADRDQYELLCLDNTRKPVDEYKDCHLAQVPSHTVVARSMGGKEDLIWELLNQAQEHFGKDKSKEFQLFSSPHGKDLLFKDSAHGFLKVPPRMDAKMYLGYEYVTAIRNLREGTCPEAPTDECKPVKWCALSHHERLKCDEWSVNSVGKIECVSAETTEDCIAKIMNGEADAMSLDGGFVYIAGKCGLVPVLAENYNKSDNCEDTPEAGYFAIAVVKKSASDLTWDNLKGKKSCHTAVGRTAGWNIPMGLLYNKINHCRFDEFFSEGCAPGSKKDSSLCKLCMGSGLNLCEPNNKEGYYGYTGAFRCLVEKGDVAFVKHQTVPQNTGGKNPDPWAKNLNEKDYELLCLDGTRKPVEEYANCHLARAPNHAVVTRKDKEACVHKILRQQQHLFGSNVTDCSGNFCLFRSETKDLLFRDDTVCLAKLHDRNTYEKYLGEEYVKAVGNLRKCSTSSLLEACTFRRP

Substance: hNGAL (lipocalin-2) (from UniProt P80188)
pKd [1]: 10.04

EC50 with 500 pM hNGAL [2]: 225 nM
internalization of A488-PC3 (up to 5.6 µM, 24 h) by colon-like Caco-2 BBE cells, two-site fit, first app KD [3]: 90 nM
inhibition by 500 pM apical hNGAL of the apical decrease of 700 nM A488-PC3 in colon-like Caco-2 BBE Transwell monolayers (AUC over 8 h) [4]: 25%
pEC50 [5]: 7.73
Substance: Alexa Fluor 488 (A488)-PC3 (phytochelatin PC3) (peptide)

inhibition by 500 pM apical hNGAL of the apical decrease of 700 nM A546-MT in colon-like Caco-2 BBE Transwell monolayers (AUC over 8 h) [4]: 40%
Substance: Alexa Fluor 546-labelled metallothionein (rabbit apo-MT-2) (from UniProt P18055 1-62) (natural protein)

inhibition by 500 pM apical hNGAL of the apical decrease of 700 nM A546-Tf in colon-like Caco-2 BBE Transwell monolayers (AUC over 8 h) [4]: 25%
Substance: Alexa Fluor 546-transferrin from human serum (from UniProt P02787 20-698) (natural protein)
